From patent US6998260 (PROMEGA, dated 2006)

B1: recombinant human β-I tryptase (from pPIC9-HumTry, expressed in Pichia pastoris) (enzyme)
chain: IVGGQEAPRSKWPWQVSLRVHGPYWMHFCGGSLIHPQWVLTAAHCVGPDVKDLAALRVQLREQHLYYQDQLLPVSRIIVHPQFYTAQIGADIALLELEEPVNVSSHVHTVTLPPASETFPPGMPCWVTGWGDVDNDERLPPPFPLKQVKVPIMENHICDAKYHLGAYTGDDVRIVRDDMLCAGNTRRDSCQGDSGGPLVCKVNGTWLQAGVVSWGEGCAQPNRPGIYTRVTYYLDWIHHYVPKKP
modifications: N-glycosylated at two sites (N102 and N204, as the filing says)
notes: Secreted as a mature monomer that self-assembles into a homotetramer; On the Western blots (SDS-PAGE) it stood as denatured subunits; also called rh β I; R βI tryptase
B2: human β-I tryptase active site mutant S194A (enzyme)
chain: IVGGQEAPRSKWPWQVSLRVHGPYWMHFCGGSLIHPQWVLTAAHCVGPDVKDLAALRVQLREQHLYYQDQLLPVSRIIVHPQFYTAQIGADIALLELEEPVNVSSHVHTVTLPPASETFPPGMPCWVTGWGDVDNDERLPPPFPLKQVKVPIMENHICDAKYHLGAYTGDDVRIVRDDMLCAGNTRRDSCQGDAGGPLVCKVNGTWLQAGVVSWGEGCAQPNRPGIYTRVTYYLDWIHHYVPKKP
notes: also called β-I S194A active site mutant; S194A β-I tryptase active site mutant
B3: recombinant human β-II tryptase (from pPIC9-HumTryN102K, expressed in Pichia pastoris) (enzyme)
chain: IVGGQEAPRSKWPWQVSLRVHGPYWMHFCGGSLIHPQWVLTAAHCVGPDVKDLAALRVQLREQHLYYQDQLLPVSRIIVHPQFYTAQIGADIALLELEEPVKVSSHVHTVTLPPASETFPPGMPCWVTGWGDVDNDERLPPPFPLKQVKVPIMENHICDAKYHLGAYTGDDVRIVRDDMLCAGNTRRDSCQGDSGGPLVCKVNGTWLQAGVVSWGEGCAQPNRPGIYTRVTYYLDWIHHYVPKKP
modifications: N-glycosylated at one site
notes: Homotetramer by gel filtration; also called rh β II; R βII tryptase

Target: the molecule itself
Assay: gel filtration; self-association of subunits into a homotetramer

| Protein | binding result |
| --- | --- |
| B1 | binds |
| B2 | binds |
| B3 | binds |
